Test results reported in article PMC5748111.

Biological target: CaMKII (human CaMKIIδ, form used for the solution kinetics not stated) (human) (UniProt Q13557)
Chain of UniProt Q13557 (Q13557 1-478, stated change not applied): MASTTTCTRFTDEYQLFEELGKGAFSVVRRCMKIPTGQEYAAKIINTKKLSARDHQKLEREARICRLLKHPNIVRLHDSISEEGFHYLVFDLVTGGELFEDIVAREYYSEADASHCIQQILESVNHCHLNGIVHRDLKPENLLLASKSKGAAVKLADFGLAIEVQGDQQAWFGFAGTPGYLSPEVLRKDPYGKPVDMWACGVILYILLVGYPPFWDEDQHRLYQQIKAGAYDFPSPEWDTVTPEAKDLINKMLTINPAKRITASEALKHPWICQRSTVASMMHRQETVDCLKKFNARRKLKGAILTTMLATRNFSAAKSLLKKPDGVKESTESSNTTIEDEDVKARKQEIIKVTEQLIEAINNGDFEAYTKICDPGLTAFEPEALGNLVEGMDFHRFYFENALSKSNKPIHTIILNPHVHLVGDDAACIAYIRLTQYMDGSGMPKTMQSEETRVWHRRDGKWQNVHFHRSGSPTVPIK

Row | Km of peptide phosphorylation, standard solution kinetics | Binder
1 | 43.5 µM | PLARTLSVAGLPGKK [Syntide peptide]
2 | > 1000 µM | PGVRLLQDSVDFSLA [VimentinS83 peptide]
3 | > 1000 µM | GFCLIPQQSINEAIR [GluA1_(S849) peptide]
4 | 4.6 µM | RNKLRRQHSYDTFVD [GluN2B_(S1303) peptide]
